The target of assay [1] is sRAGE antigen (biotin-labeled). The assay is described as follows: ELISA: antibody coated on plate, serial dilution of biotinylated sRAGE, HRP-streptavidin detection, Prism non-linear fit. A general note: An ELISA detects its analyte on a solid surface through an enzyme-linked reagent.
Assay [2] deals with sRAGE antigen (biotin-labeled). Described as above. This is another data set of the same source.
The target of assay [3] is sRAGE antigen (biotin-labeled). The assay is described as follows: ELISA with biotinylated sRAGE.

B1: original murine anti-RAGE monoclonal antibody (IgG2a isotype with a Kappa light chain) (antibody, V domains shown)
VH: DVQLQESGPGLVKPSQSLSLNCSVTGSSITSGYYWNWIRQFPGNKLEWMGDISYDGSNNYNPSLKNRISITRDTSKNQVFMKLNSVTTEDTAIYKCVREDRSGYPPFANWGQGTLVTVSA
VL: DVQMTQTTSSLSASLGDRVTINCRASQDISNYLNWYQQKPDGTVKLLIYYTSRLHSGVPSRFSGSGSGTDYSLTISNLEQEDIATYFCQQGNTLPWTFGGGTKLEIK
As a reminder, the Kd is the free concentration of one partner at which half of the binding sites on the other are occupied at equilibrium, for simple one-to-one binding. Regarding B1, the dissociation constant (Kd) in assay [1] was found to be 88.4 nM; in assay [2], 58 nM; in assay [3], 62.6 nM.

B2: mouse-human chimera anti-RAGE antibody (antibody, human IgG1, kappa, V domains shown)
VH: DVQLQESGPGLVKPSQSLSLNCSVTGSSITSGYYWNWIRQFPGNKLEWMGDISYDGSNNYNPSLKNRISITRDTSKNQVFMKLNSVTTEDTAIYKCVREDRSGYPPFANWGQGTLVTVSS
VL: DIQMTQTTSSLSASLGDRVTINCRASQDISNYLNWYQQKPDGTVKLLIYYTSRLHSGVPSRFSGSGSGTDYSLTISNLEQEDIATYFCQQGNTLPWTFGQGTKVEIKR
With B2, the Kd turned out to be 38.7 nM in assay [1], 40 nM in assay [2] and 104 nM in assay [3].

B3: humanized anti-RAGE antibody, full-length IgG1 (antibody, V domains shown)
VH: QVQLQESGPGLVKPSQTLSLTCAVYGGSITSGYYWNWIRQPPGKGLEWIGDISYDGSNNYNPSLKSRVTISRDTSKNQFSLKLSSVTAADTAVYYCVREDRSGYPPFANWGQGTLVTVSS
VL: DIQMTQSPSSLSASVGDRVTITCQASQDISNYLNWYQQKPGKAPKLLIYYTSRLHSGVPSRFSGSGSGTDFTFTISSLQPEDIATYYCQQGNTLPWTFGQGTKV
For the molecule B3, the Kd was 42.1 nM in assay [1] and 133 nM in assay [3].
